Reference: paper PMC3347502

Target: long-chain neurotoxin NTII/I
Assay: NMR titration

Substance: α7ED/C116S/DTES (extracellular domain of human α7 nicotinic acetylcholine receptor with Cys116Ser an (domain or fragment)
- stoichiometry N: 2
